B1: Twister Ribozyme (parent)
chain: AACACUGCCAAUGCCGGUCCCAAGCCCGGAUAAAAGUGGAGGGGGCGG

Variants of: B1
Assay: self-cleavage, relative activity (ratio to wild type); higher = more cleavage; co-transcriptional

First: AACACUGCCAAUGCCGGUCCCAAGCCCGGAUAAAAAUGGAGUGGGCGG
Second: AACACUGCCAAUGCCGGUCCCAAGCCCGGAUAAAAAUGGAGGCGGCGG
The self-cleavage of the first is lower: 0.128 for the first, 0.152 for the second.

Going from AACACUGCCAAUGCCGGUCCCAAGCCCGGAUAAAAAUGGAGGGAGCGG to AACACUGCCAAUGCCGGUCCCAAGCCCGGAUAAAAAUGGAGGGCGCGG, the self-cleavage falls from 0.8 to 0.762.

Going from AACACUGCCAAUGCCGGUCCCAAGCCCGGAUAAAAAUGGAGGGUGCGG to AACACUGCCAAUGCCGGUCCCAAGCCCGGAUAAAAAUGGAGGGGCCGG, the self-cleavage falls from 0.791 to 0.256.

Going from AACACUGCCAAUGCCGGUCCCAAGCCCGGAUAAAAAUGGAGGGGGCAG to AACACUGCCAAUGCCGGUCCCAAGCCCGGAUAAAAAUGGAGGGGGCUG, the self-cleavage rises from 0.557 to 0.76.

First: AACACUGCCAAUGCCGGUCCCAAGCCCGGAUAAAAAUGGAGGGGGCGC
Second: AACACUGCCAAUGCCGGUCCCAAGCCCGGAUAAAAAUGGAGGGGGCGU
The self-cleavage of the first is higher: 0.99 for the first, 0.809 for the second.

First: AACACUGCCAAUGCCGGUCCCAAGCCCGGAUAAAAACGGAGGGGGCGG
Second: AACACUGCCAAUGCCGGUCCCAAGCCCGGAUAAAACUGGUGGGGGCGG
The self-cleavage of the first is higher: 0.156 for the first, 0.149 for the second.

Compared with AACACUGCCAAUGCCGGUCCCAAGCCCGGAUAAAACUGGAGGGGGAGG, AACACUGCCAAUGCCGGUCCCAAGCCCGGAUAAAACUGGAGGGGGGGG is higher in self-cleavage: 0.367 for the first, 0.45 for the second.

Compared with AACACUGCCAAUGCCGGUCCCAAGCCCGGAUAAAACUAGAGGGGGCGG, AACACUGCCAAUGCCGGUCCCAAGCCCGGAUAAAACUCGAGGGGGCGG is lower in self-cleavage: 0.459 for the first, 0.217 for the second.

First: AACACUGCCAAUGCCGGUCCCAAGCCCGGAUAAAACUGGAGAGGGCGG
Second: AACACUGCCAAUGCCGGUCCCAAGCCCGGAUAAAACUGGAGCGGGCGG
The self-cleavage of the first is lower: 0.134 for the first, 0.189 for the second.

Going from AACACUGCCAAUGCCGGUCCCAAGCCCGGAUAAAACUGGAGGAGGCGG to AACACUGCCAAUGCCGGUCCCAAGCCCGGAUAAAACUGGAGGUGGCGG, the self-cleavage falls from 0.134 to 0.116.

First: AACACUGCCAAUGCCGGUCCCAAGCCCGGAUAAAACUGGAGGGAGCGG
Second: AACACUGCCAAUGCCGGUCCCAAGCCCGGAUAAAACUGGAGGGGCCGG
The self-cleavage of the first is higher: 0.7 for the first, 0.201 for the second.

Going from AACACUGCCAAUGCCGGUCCCAAGCCCGGAUAAAACUGGAGGGGUCGG to AACACUGCCAAUGCCGGUCCCAAGCCCGGAUAAAACUGGAGGGGGCAG, the self-cleavage falls from 0.257 to 0.183.

Going from AACACUGCCAAUGCCGGUCCCAAGCCCGGAUAAAACUGGAGGGGGCGU to AACACUGCCAAUGCCGGUCCCAAGCCCGGAUAAAACAGGAGGGGGCGG, the self-cleavage falls from 0.455 to 0.107.

First: AACACUGCCAAUGCCGGUCCCAAGCCCGGAUAAAACCGGAGGGGGCGG
Second: AACACUGCCAAUGCCGGUCCCAAGCCCGGAUAAAACGGGAGGGGGCGG
The self-cleavage of the first is lower: 0.123 for the first, 0.297 for the second.

First: AACACUGCCAAUGCCGGUCCCAAGCCCGGAUAAAAUUGGCGGGGGCGG
Second: AACACUGCCAAUGCCGGUCCCAAGCCCGGAUAAAAUUGGUGGGGGCGG
The self-cleavage of the first is lower: 0.122 for the first, 0.141 for the second.

Going from AACACUGCCAAUGCCGGUCCCAAGCCCGGAUAAAAUUGGAGGGGGAGG to AACACUGCCAAUGCCGGUCCCAAGCCCGGAUAAAAUUGGAGGGGGGGG, the self-cleavage rises from 0.31 to 0.313.

First: AACACUGCCAAUGCCGGUCCCAAGCCCGGAUAAAAUUGGAGGGGGUGG
Second: AACACUGCCAAUGCCGGUCCCAAGCCCGGAUAAAAUUAGAGGGGGCGG
The self-cleavage of the first is lower: 0.408 for the first, 0.452 for the second.

Compared with AACACUGCCAAUGCCGGUCCCAAGCCCGGAUAAAAUUUGAGGGGGCGG, AACACUGCCAAUGCCGGUCCCAAGCCCGGAUAAAAUUGAAGGGGGCGG is higher in self-cleavage: 0.167 for the first, 0.172 for the second.

First: AACACUGCCAAUGCCGGUCCCAAGCCCGGAUAAAAUUGCAGGGGGCGG
Second: AACACUGCCAAUGCCGGUCCCAAGCCCGGAUAAAAUUGUAGGGGGCGG
The self-cleavage of the first is higher: 0.15 for the first, 0.147 for the second.

First: AACACUGCCAAUGCCGGUCCCAAGCCCGGAUAAAAUUGGAGAGGGCGG
Second: AACACUGCCAAUGCCGGUCCCAAGCCCGGAUAAAAUUGGAGCGGGCGG
The self-cleavage of the first is lower: 0.123 for the first, 0.16 for the second.

First: AACACUGCCAAUGCCGGUCCCAAGCCCGGAUAAAAUUGGAGGAGGCGG
Second: AACACUGCCAAUGCCGGUCCCAAGCCCGGAUAAAAUUGGAGGCGGCGG
The self-cleavage of the first is lower: 0.102 for the first, 0.124 for the second.

Going from AACACUGCCAAUGCCGGUCCCAAGCCCGGAUAAAAUUGGAGGGAGCGG to AACACUGCCAAUGCCGGUCCCAAGCCCGGAUAAAAUUGGAGGGCGCGG, the self-cleavage falls from 0.717 to 0.372.

First: AACACUGCCAAUGCCGGUCCCAAGCCCGGAUAAAAUUGGAGGGUGCGG
Second: AACACUGCCAAUGCCGGUCCCAAGCCCGGAUAAAAUUGGAGGGGCCGG
The self-cleavage of the first is higher: 0.355 for the first, 0.199 for the second.

Compared with AACACUGCCAAUGCCGGUCCCAAGCCCGGAUAAAAUUGGAGGGGUCGG, AACACUGCCAAUGCCGGUCCCAAGCCCGGAUAAAAUUGGAGGGGGCGU is higher in self-cleavage: 0.315 for the first, 0.454 for the second.

Compared with AACACUGCCAAUGCCGGUCCCAAGCCCGGAUAAAAUGGGAGGGGGCGG, AACACUGCCAAUGCCGGUCCCAAGCCCGGAUAAAAGAGGAGGGGGGGG is higher in self-cleavage: 0.37 for the first, 0.748 for the second.

Going from AACACUGCCAAUGCCGGUCCCAAGCCCGGAUAAAAGAGGAGGGGGUGG to AACACUGCCAAUGCCGGUCCCAAGCCCGGAUAAAAGAAGAGGGGGCGG, the self-cleavage falls from 0.886 to 0.821.

Compared with AACACUGCCAAUGCCGGUCCCAAGCCCGGAUAAAAGACGAGGGGGCGG, AACACUGCCAAUGCCGGUCCCAAGCCCGGAUAAAAGAUGAGGGGGCGG is lower in self-cleavage: 0.551 for the first, 0.38 for the second.

From the RNAGym collection of RNA variant scans (doi:10.7554/elife.80360)
